Measured values reported in paper doi:10.1101/049148.

Experiments:
[1] = target: Heh1-VN (budding yeast (endogenously tagged)) (UniProt Q03707); test: split reporter
[2] = target: Heh2-VN (budding yeast (endogenously tagged)) (UniProt Q03281); test: split reporter
Sequence of UniProt Q03281 (Q03281 whole entry): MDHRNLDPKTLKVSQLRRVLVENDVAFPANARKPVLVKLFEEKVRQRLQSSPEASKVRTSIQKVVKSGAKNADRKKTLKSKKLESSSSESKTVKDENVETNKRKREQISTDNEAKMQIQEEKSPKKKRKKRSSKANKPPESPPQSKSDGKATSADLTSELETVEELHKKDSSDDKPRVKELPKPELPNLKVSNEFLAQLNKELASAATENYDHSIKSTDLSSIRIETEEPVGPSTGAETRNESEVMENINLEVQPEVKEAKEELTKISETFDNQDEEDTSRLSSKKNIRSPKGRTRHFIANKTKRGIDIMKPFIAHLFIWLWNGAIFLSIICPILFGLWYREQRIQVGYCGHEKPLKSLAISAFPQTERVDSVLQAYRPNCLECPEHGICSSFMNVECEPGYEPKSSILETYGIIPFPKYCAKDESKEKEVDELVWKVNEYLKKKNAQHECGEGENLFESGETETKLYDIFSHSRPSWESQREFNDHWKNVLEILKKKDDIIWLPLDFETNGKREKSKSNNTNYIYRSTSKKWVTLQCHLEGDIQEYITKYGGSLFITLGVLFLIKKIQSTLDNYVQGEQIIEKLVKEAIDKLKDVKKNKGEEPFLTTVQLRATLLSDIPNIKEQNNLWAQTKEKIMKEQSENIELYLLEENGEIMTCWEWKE

Sequence of UniProt Q03707 (Q03707 whole entry): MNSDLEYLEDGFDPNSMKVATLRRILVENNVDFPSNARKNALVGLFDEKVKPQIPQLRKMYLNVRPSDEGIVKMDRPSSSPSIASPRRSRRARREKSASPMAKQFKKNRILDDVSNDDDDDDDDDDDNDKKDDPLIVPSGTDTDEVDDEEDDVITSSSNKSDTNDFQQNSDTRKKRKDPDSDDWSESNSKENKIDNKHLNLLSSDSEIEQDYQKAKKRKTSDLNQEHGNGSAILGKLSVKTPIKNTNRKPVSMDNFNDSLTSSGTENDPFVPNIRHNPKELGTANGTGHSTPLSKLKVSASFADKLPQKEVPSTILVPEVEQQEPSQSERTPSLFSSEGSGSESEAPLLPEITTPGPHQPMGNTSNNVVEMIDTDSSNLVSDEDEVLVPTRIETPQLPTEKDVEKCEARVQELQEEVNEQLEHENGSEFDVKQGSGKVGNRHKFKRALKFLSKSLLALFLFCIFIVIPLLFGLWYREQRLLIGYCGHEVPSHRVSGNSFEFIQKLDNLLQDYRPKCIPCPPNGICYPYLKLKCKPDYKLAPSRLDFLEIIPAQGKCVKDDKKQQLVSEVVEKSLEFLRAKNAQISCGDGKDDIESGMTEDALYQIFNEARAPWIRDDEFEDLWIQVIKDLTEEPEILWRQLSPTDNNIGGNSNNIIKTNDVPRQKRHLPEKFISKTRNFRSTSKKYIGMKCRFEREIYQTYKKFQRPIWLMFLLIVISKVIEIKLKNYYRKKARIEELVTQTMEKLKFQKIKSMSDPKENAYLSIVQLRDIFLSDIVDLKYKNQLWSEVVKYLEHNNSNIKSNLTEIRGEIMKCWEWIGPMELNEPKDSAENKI

- percent of cells with a BiFC focus [1]: 28%
- percent of cells with a BiFC focus [2]: 3%
Substance: Chm7-VC (natural protein)
